Experimental data published in publication doi:10.1101/2021.10.18.464838, “Two distinct classes of co-chaperones compete for the EEVD motif in heat shock protein 70 (Hsp70) to tune its activity” (bioRxiv, 2021).
Values joined by “and” are separate entries in the source; they are usually repeats but may differ in a detail not shown here. Equal values may be shown once. Where no end group is shown, it is not given here. The star is where a group is joined. FITC = O=C1OC2(c3ccc(O)cc3Oc3cc(O)ccc32)c2ccc(NC(=S)*)cc21; Ahx = NCCCCCC(=O)O

B2: Hsp72 phosphomimetic T636E tracer FITC-Ahx-GSGPEIEEVD (peptide)
peptide: GSGPEIEEVD-OH
modifications: not fully specified (N-terminus); printed as FITC-Ahx-GSGPEIEEVD
notes: last 10 residues of Hsp72/HSPA1A with the P6 Thr changed to Glu; also called T636E Hsp72 fluorescent tracer; P6 Thr to Glu; source: synthetic peptide, bought: GenScript

Legend:
Conditions in all cases: both partners purified
[1] = biological target: T1, DnaJB4 (recombinant, human, full length, wild type) (human, UniProt Q9UDY4 1-337); assay: fluorescence polarisation; competition: 100 µM unlabeled peptide, 5 µM DnaJB4, 20 nM Hsp72 tracer in JDP binding buffer; room temperature, 30 min; tracer displacement relative to DMSO control
T1 construct: DnaJB4, human, full length; Expressed from pMCSG7 with a TEV site; also called WT DnaJB4; Class B JDP; source: E. coli BL21 (DE3) Rosetta, purified (Ni-NTA, TEV cleavage, SEC); not shown: His6, N-terminal, cleaved
T1 sequence (Q9UDY4 whole entry): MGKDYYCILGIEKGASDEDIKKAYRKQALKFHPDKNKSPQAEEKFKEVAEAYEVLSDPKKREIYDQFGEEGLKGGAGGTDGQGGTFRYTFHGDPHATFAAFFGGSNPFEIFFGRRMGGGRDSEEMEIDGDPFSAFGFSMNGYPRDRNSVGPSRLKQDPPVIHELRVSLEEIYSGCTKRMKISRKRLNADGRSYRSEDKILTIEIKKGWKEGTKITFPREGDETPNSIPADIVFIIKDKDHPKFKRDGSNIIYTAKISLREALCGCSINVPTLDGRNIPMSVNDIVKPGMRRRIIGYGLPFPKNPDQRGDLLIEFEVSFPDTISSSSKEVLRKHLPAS

[2] = biological target: T1, DnaJB4 (recombinant, human, full …); assay: fluorescence polarisation; saturation binding: 20 nM Hsp72 tracer with DnaJB4 (WT or QPD) 110 to 0.013 µM in 2X dilutions; 50 mM Tris, 15 mM NaCl, 1 mM DTT, 0.01% Triton X-100, pH 8.0; room temperature, 30 min
[3] = biological target: B2; assay: fluorescence polarisation; saturation binding: 20 nM Hsp72 tracer with CHIP 110 to 0.013 µM in 2X dilutions; 50 mM HEPES, 50 mM KCl, 0.01% Triton X-100, pH 7.4; room temperature, 30 min

B1: Hsp72 C-terminal 7-mer peptide PTIEEVD (peptide)
peptide: Ac-PTIEEVD-OH
notes: last 7 residues of Hsp72/HSPA1A; also called last 7 amino acids of Hsp70's C-terminus; source: synthetic peptide, bought: GenScript
**Q.** Does B1 bind [1]?
**A.** Result: binds

**Q.** Does B2 bind [2]?
**A.** Result: binds

B3: Hsp72 10-mer peptide with the P5 Ile replaced by Met (peptide, UniProt P0DMV8 632-641, looked up)
peptide: Ac-GSGPTMEEVD-OH
notes: also called P5 Ile to Met mutant; source: synthetic peptide, bought: GenScript
**Q.** Does B3 bind [1]?
**A.** Result: binds

B4: Hsp72 tracer FITC-Ahx-GSGPTIEEVD (peptide)
peptide: {FITC-Ahx}-GSGPTIEEVD-OH
modifications: not fully specified; printed as FITC-Ahx-GSGPTIEEVD
notes: last 10 residues of Hsp72/HSPA1A; also called EEVD tracer; fluorescent Hsp72 peptide; source: synthetic peptide, bought: GenScript
**Q.** With B4 as the binder, how does the Kd [2] read?
**A.** The Kd was 1910 nM and 1690 nM.

B5: CHIP (recombinant human) (natural protein, UniProt Q9UNE7 1-303, looked up)
chain: MKGKEEKEGGARLGAGGGSPEKSPSAQELKEQGNRLFVGRKYPEAAACYGRAITRNPLVAVYYTNRALCYLKMQQHEQALADCRRALELDGQSVKAHFFLGQCQLEMESYDEAIANLQRAYSLAKEQRLNFGDDIPSALRIAKKKRWNSIEERRIHQESELHSYLSRLIAAERERELEECQRNHEGDEDDSHVRAQQACIEAKHDKYMADMDELFSQVDEKRKKRDIPDYLCGKISFELMREPCITPSGITYDRKDIEEHLQRVGHFDPVTRSPLTQEQLIPNLAMKEVIDAFISENGWVEDY
notes: CHIP, human; also called E3 ubiquitin ligase CHIP; TPR domain co-chaperone; source: E. coli BL21(DE3), purified (Ni-NTA, TEV cleavage, SEC); not shown: His6, N-terminal, cleaved
**Q.** With B5 as the binder, how does the “fold weakening of the affinity against the WT tracer” value [3] read?
**A.** Its value is 5 fold.
